B1: Azoarcus group I ribozyme (parent)
chain: GUGCCUUGCGCCGGGAAACCACGCAAGGGAUGGUGUCAAAUUCGGCGAAACCUAAGCGCCCGCCCGGGCGUAUGGCAACGCCGAGCCAAGCUUCGGCGCCUGCGCCGAUGAAGGUGUAGAGACUAGACGGCACCCACCUAAGGCAAACGCUAUGGUGAAGGCAUAGUCCAGGGAGUGGCGAAAGUCACACAAACCGG

Variants of: B1
Experiment: reverse-splicing fitness (ratio to wild type); higher = more active; in vitro selection; Mg2+ level not given
Outline: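 An in vitro group I ribozyme library with randomized positions was T7-transcribed and gel-purified. In triplicate, 10 pmol RNA in EPPS pH 7.5 was reacted with 50 pmoles of a 30-nt RNA substrate for 1 h at 37 °C across several added MgCl2 levels (1–48 mM), then stopped with EDTA. Products were reverse transcribed from a substrate-complementary primer, PCR-amplified and sequenced (HiSeq 4000). Fitness is a variant's read proportion after selection over that before, normalised to wild type.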

Variant | reverse-splicing fitness
GUGCCUUGCGCCGGGAAACCACGCAAGGGAUGGUGUCAAAUUCGGCGAAACCUAAGCGCCCGCCCGGGCGUAUGGCAACGCCGAGCCAAGCUUCGGCGCCUGCGCCGAUGUAGGUGUAGGGACUAGACGGCACCCACCUAAGGCUAACGUUAUGGUGAAGGCAUAGUCAAGGGAGGGGCGAAAGUCACACAAACCGG | 0.00508
GUGCCUUGCGCCGGGAAACCACGCAAGGGAUGGUGUCAAAUUCGGCGAAACCUAAGCGCCCGCCCGGGCGUAUGGCAACGCCGAGCCAAGCUUCGGCGCCUGCGCCGAUGUAGGUGUAGGGACUAGACGGCACCCACCUAAGGCUAACGUUAUGGUGAAGGCAUAGUCAAGGGAGAGGCGAAAGUCACACAAACCGG | 0.0184
GUGCCUUGCGCCGGGAAACCACGCAAGGGAUGGUGUCAAAUUCGGCGAAACCUAAGCGCCCGCCCGGGCGUAUGGCAACGCCGAGCCAAGCUUCGGCGCCUGCGCCGAUGUAGGUGUAGGGACUAGACGGCACCCACCUAAGGCUAACGUUAUGGUGAAGGCAUAGUCAAGGGAGCGGCGAAAGUCACACAAACCGG | 0.0207
GUGCCUUGCGCCGGGAAACCACGCAAGGGAUGGUGUCAAAUUCGGCGAAACCUAAGCGCCCGCCCGGGCGUAUGGCAACGCCGAGCCAAGCUUCGGCGCCUGCGCCGAUGUAGGUGUAGGGACUAGACGGCACCCACCUAAGGCAAACGAUAUGGUGAAGGCAUAGUCCAGGGAGUGGCGAAAGUCACACAAACCGG | 0.02
GUGCCUUGCGCCGGGAAACCACGCAAGGGAUGGUGUCAAAUUCGGCGAAACCUAAGCGCCCGCCCGGGCGUAUGGCAACGCCGAGCCAAGCUUCGGCGCCUGCGCCGAUGUAGGUGUAGGGACUAGACGGCACCCACCUAAGGCUAACGCUAUGGUGAAGGCAUAGUCUAGGGAGGGGCGAAAGUCACACAAACCGG | 0.00682
GUGCCUUGCGCCGGGAAACCACGCAAGGGAUGGUGUCAAAUUCGGCGAAACCUAAGCGCCCGCCCGGGCGUAUGGCAACGCCGAGCCAAGCUUCGGCGCCUGCGCCGAUGUAGGUGUAGGGACUAGACGGCACCCACCUAAGGCUAACGCUAUGGUGAAGGCAUAGUCUAGGGAGAGGCGAAAGUCACACAAACCGG | 0.0488
GUGCCUUGCGCCGGGAAACCACGCAAGGGAUGGUGUCAAAUUCGGCGAAACCUAAGCGCCCGCCCGGGCGUAUGGCAACGCCGAGCCAAGCUUCGGCGCCUGCGCCGAUGUAGGUGUAGGGACUAGACGGCACCCACCUAAGGCUAACGCUAUGGUGAAGGCAUAGUCUAGGGAGCGGCGAAAGUCACACAAACCGG | 0.0495
GUGCCUUGCGCCGGGAAACCACGCAAGGGAUGGUGUCAAAUUCGGCGAAACCUAAGCGCCCGCCCGGGCGUAUGGCAACGCCGAGCCAAGCUUCGGCGCCUGCGCCGAUGUAGGUGUAGGGACUAGACGGCACCCACCUAAGGCUAACGCUAUGGUGAAGGCAUAGUCGAGGGAGAGGCGAAAGUCACACAAACCGG | 0.0309
GUGCCUUGCGCCGGGAAACCACGCAAGGGAUGGUGUCAAAUUCGGCGAAACCUAAGCGCCCGCCCGGGCGUAUGGCAACGCCGAGCCAAGCUUCGGCGCCUGCGCCGAUGUAGGUGUAGGGACUAGACGGCACCCACCUAAGGCUAACGCUAUGGUGAAGGCAUAGUCGAGGGAGCGGCGAAAGUCACACAAACCGG | 0.045
GUGCCUUGCGCCGGGAAACCACGCAAGGGAUGGUGUCAAAUUCGGCGAAACCUAAGCGCCCGCCCGGGCGUAUGGCAACGCCGAGCCAAGCUUCGGCGCCUGCGCCGAUGUAGGUGUAGGGACUAGACGGCACCCACCUAAGGCUAACGCUAUGGUGAAGGCAUAGUCGAGGGAGGGGCGAAAGUCACACAAACCGG | 0.00486
GUGCCUUGCGCCGGGAAACCACGCAAGGGAUGGUGUCAAAUUCGGCGAAACCUAAGCGCCCGCCCGGGCGUAUGGCAACGCCGAGCCAAGCUUCGGCGCCUGCGCCGAUGUAGGUGUAGGGACUAGACGGCACCCACCUAAGGCUAACGUUAUGGUGAAGGCAUAGUCUAGGGAGUGGCGAAAGUCACACAAACCGG | 0.105
GUGCCUUGCGCCGGGAAACCACGCAAGGGAUGGUGUCAAAUUCGGCGAAACCUAAGCGCCCGCCCGGGCGUAUGGCAACGCCGAGCCAAGCUUCGGCGCCUGCGCCGAUGUAGGUGUAGGGACUAGACGGCACCCACCUAAGGCUAACGUUAUGGUGAAGGCAUAGUCGAGGGAGUGGCGAAAGUCACACAAACCGG | 0.129
GUGCCUUGCGCCGGGAAACCACGCAAGGGAUGGUGUCAAAUUCGGCGAAACCUAAGCGCCCGCCCGGGCGUAUGGCAACGCCGAGCCAAGCUUCGGCGCCUGCGCCGAUGUAGGUGUAGGGACUAGACGGCACCCACCUAAGGCUAACGCUAUGGUGAAGGCAUAGUCAAGGGAGAGGCGAAAGUCACACAAACCGG | 0.0201
GUGCCUUGCGCCGGGAAACCACGCAAGGGAUGGUGUCAAAUUCGGCGAAACCUAAGCGCCCGCCCGGGCGUAUGGCAACGCCGAGCCAAGCUUCGGCGCCUGCGCCGAUGUAGGUGUAGGGACUAGACGGCACCCACCUAAGGCUAACGCUAUGGUGAAGGCAUAGUCAAGGGAGGGGCGAAAGUCACACAAACCGG | 0.00427
GUGCCUUGCGCCGGGAAACCACGCAAGGGAUGGUGUCAAAUUCGGCGAAACCUAAGCGCCCGCCCGGGCGUAUGGCAACGCCGAGCCAAGCUUCGGCGCCUGCGCCGAUGUAGGUGUAGGGACUAGACGGCACCCACCUAAGGCUAACGCUAUGGUGAAGGCAUAGUCAAGGGAGCGGCGAAAGUCACACAAACCGG | 0.0247
